# Test results published in patent publication US20170355774A1 (Regeneron, published 2017).
# Numbering of substitutions follows the chain as printed. Names and notes keep the numbering of the source.
# T1: human GITR (amino acids M1-V241, NCBI Accession #NP_004186.1) expressed on cells (human, UniProt Q9Y5U5 26-241)
# T1 sequence: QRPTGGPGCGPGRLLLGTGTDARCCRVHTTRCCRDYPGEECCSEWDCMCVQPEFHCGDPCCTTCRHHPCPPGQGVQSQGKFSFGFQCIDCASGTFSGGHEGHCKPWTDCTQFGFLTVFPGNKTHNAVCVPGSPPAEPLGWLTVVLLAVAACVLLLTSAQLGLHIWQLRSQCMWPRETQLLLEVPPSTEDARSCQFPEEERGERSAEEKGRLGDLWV
# T2: hGITR.mFc (human)
# T2 construct: soluble dimeric construct with mouse Fc; also called dimeric human GITR
# T2 chain: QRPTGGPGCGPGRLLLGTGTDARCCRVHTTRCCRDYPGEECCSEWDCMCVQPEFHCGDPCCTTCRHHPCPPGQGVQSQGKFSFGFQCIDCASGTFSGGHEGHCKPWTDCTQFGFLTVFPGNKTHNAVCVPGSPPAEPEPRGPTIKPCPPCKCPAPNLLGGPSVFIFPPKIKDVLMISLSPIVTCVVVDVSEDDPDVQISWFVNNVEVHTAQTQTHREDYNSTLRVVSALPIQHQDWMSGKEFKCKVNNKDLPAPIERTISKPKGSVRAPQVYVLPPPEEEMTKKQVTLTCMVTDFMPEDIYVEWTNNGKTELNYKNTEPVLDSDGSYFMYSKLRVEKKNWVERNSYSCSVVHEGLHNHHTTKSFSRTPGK
# T3: hGITR.mmh (human)
# T3 construct: soluble monomeric construct; also called human (h) GITR.mmh; monomeric human GITR
# T3 chain: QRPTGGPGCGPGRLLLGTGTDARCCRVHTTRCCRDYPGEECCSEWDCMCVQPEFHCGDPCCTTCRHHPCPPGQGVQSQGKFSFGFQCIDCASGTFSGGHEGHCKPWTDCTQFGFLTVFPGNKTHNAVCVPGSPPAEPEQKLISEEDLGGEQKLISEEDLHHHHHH
# T4: mfGITR.mmh (Macaca fasicularis)
# T4 construct: soluble monomeric construct; also called Macaca fasicularis (mf) GITR.mmh; cynomolgus GITR protein
# T4 chain: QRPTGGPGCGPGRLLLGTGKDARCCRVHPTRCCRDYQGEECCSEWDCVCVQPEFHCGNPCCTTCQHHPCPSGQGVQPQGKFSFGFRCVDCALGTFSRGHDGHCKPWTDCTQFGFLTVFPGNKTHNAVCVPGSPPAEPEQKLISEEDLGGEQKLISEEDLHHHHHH
# B1: H4H14521P (antibody, human IgG4, V domains shown)
# VH: EVQLVESGGGLVQPGGSLRLSCAASGFTFRVYEMNWVRQAPGKGLEWISYIGSSGFTIYYADSVKGRFTISRDNAKNSLFLQLNSLRAEDTAVYYCARGWNDGVPNYLGMDVWGQGTTVTVSS
# VL: DIQMTQSPSSLSASVGDRVTITCQASQDINKYLNWYQQKPGKAPKLLIYDASNLETGVPSRFSGSGSGTDFTFTISSLQPEDIARYHCQQYDKIPLTFGGGTKVEIK
# notes: human IgG4 (H4H)
# B2: H1H14520P (antibody, human IgG1, V domains shown)
# VH: QVQLVESGGGVVQPGRSLRLSCAASGFTFSSFGMHWVRQAPGKGLEWVAVISYDGRNRYYADSVKGRFTISRDNSKNTLYLQMNSLSAEDTAMFYCAKDGFGNSFDYWGQGTLVTVSS
# VL: DVVMTQSPLSLPVTLGQPASISCRSSQSLLYSDGNTYLTWFQQRPGQSPRRLIYKVSNRDSGVPDRFSGSGSGTDFTLTISRVEAEDVGIYYCMQGTHWPWTFGQGTKVEIK
# notes: human IgG1 (H1H)
# B3: H4H14476P (antibody, human IgG4, V domains shown)
# VH: QVQLVESGGGVVQPGRSLRLSCAASGFTFSNYGIHWVRQPPGQGLEWVAVIWYAGSNKFYADSVKGRFTISRDNSKNSAYLQMNSLRAEDTAVYYCARAPLGYYYYGMDVWGQGTTVTVSS
# VL: DIQMTQSPSSLSASVGDRVTITCRASQGIRNDLGWYQQKPGKAPKRLIYDASSLESGVPSRFSGSGSGTEFTLTISSLQPEDFATYYCLQHNSYPWTFGQGTKVEIK
# notes: human IgG4 (H4H)
# B4: H1H14486P (antibody, human IgG1, V domains shown)
# VH: QVQLVESGGGVVQPGRSLRLSCAASGFTFSNYGMHWVRQAPGKGLEWVAVIWYPGSNKFYTDSVEGRFTISRDNSKNTVYLQMDSLRAEDTAVYYCARGGALGVDYYYGMDVWGQGTTVTVSS
# VL: B3 VL with D1A, I21L, K45N, R46F, D50S, E55Q, E70D, H91N, N92Y, S93N
# notes: human IgG1 (H1H)
# B5: H1H14493P (antibody, human IgG1, V domains shown)
# VH: QVQLVESGGGVVQPGRSLRLSCAASGFNFRSYGMHWVRQAPGKGLEWVAVIWYDGSNKYYADSVKGRFTISRDSSRDTLFLQMNSLRAGDTAVYYCARGGMLGRDYYYGMDVWGQGTTVTVSS
# VL: B3 VL with D50A, E55Q, W96N, V104L
# notes: human IgG1 (H1H)
# Biological target: T1, human GITR (amino acids M1-V241, NCBI …)
# Experiment: cell-based or functional assay
"fold activation, T-cell proliferation, plate-bound Ab 10.6 nM, donor 1 [fold]","fold activation, T-cell proliferation, plate-bound Ab 10.6 nM, donor 2 [fold]","fold activation, T-cell proliferation, plate-bound Ab 10.6 nM, donor 3 [fold]","fold activation, T-cell proliferation, plate-bound Ab 10.6 nM, donor 4 [fold]","fold activation, T-cell proliferation, plate-bound Ab 10.6 nM, donor 5 [fold]","fold activation, T-cell proliferation, plate-bound Ab 10.6 nM, donor 6 [fold]","fold activation, T-cell proliferation, plate-bound Ab 10.6 nM, donor 7 [fold]","fold activation, T-cell proliferation, plate-bound Ab 10.6 nM, donor 8 [fold]","fold activation, T-cell proliferation, plate-bound Ab 10.6 nM, mean [fold]",Binder
1,4,4,5,4,12,3,2,4,B1

# Biological target: T1, human GITR (amino acids M1-V241, NCBI …)
# Experiment: ECL cell binding, hGITR/HEK293-D9
# Method: Nonspecific binding sites were blocked with 2% BSA (w/v)+PBS for 1 h at room temperature (RT). Next, serial dilutions of anti-GITR antibodies, ranging from 1.7 pM to 100 nM, were added to cells for 1 h at RT. Plates were then washed to remove unbound antibodies (AquaMax2000 plate washer, MSD Analytical Technologies) and plate-bound antibodies were detected with a SULFO-TAG™ conjugated anti-human kappa light chain IgG antibody (Jackson Immunoresearch) for 1 h at RT.
# Following washes, luminescent signals were recorded with a SECTOR Imager 6000 (MSD) instrument. Direct binding signals (relative light units, RLU) were analyzed as a function of the antibody concentration and data were fitted with a sigmoidal (four-parameter logistic) dose-response model using GraphPad Prism™ software. […] The signal detected with 100 nM antibody binding to the hGITR expressing cells versus parental cells was recorded as an indication of intensity and specificity of GITR binding.
Average Signal (RLU) at 100 nM [RLU],EC50 [nM],Binder
10100,0.43,B1
6450,0.24,B2
8120,0.57,B3
5830,0.43,B4
7220,0.3,B5

# Biological target: T1, human GITR (amino acids M1-V241, NCBI …)
# Experiment: cell-based or functional assay
# Remark: another data set of the same source
"% Activation, NF-kB-Luc, non-anchored [%]","% Blocking, NF-kB-Luc, non-anchored [%]","EC50, hGITR activation, NF-kB-Luc, non-anchored [nM]","IC50, blocking of hGITRL stimulation, NF-kB-Luc, non-anchored [nM]",Binder
50,60,0.4,3.8,B1
10,80,1.1,0.9,B2
10,90,1,2.6,B3
30,50,1.2,1.1,B4
25,90,1.2,0.6,B5

# Biological target: T1, human GITR (amino acids M1-V241, NCBI …)
# Experiment: cell-based or functional assay
# Remark: another data set of the same source
"fold activation, T-cell proliferation, 33 nM, FcgR anchored, donor 1 [fold]","fold activation, T-cell proliferation, 33 nM, FcgR anchored, donor 2 [fold]","fold activation, T-cell proliferation, 33 nM, FcgR anchored, donor 3 [fold]","fold activation, T-cell proliferation, 33 nM, FcgR anchored, donor 4 [fold]","fold activation, T-cell proliferation, 33 nM, FcgR anchored, donor 5 [fold]","fold activation, T-cell proliferation, 33 nM, FcgR anchored, mean [fold]",Binder
1.5,1.1,1.1,1.7,0.9,1.2,B1
0.6,0.2,0.8,0.8,0.1,0.5,B3

# Biological target: T1, human GITR (amino acids M1-V241, NCBI …)
# Experiment: cell-based or functional assay
# Remark: another data set of the same source
"fold activation, T-cell proliferation, 22 nM, non-anchored, donor 1 [fold]","fold activation, T-cell proliferation, 22 nM, non-anchored, donor 2 [fold]","fold activation, T-cell proliferation, 22 nM, non-anchored, donor 3 [fold]","fold activation, T-cell proliferation, 22 nM, non-anchored, donor 4 [fold]","fold activation, T-cell proliferation, 22 nM, non-anchored, mean [fold]",Binder
0.5,1.2,0.8,1,0.9,B1
0.7,0.9,0.9,0.8,0.8,B3

# Biological target: T2, hGITR.mFc
# Experiment: SPR 37C, mAb capture
# Method: (§1) (Table 3). […] GITR proteins were injected over the sensor surface at a flow rate of 30 μL/minute. All Biacore binding studies were performed in a buffer composed of 0.01M HEPES pH 7.4, 0.15M NaCl, 3 mM EDTA, 0.05% v/v Surfactant P20 (HBS-ET running buffer). Antibody-reagent association was monitored for 4 minutes while dissociation in HBS-ET running buffer (10 mM HEPES, 150 mM NaCl, 3 mM EDTA, 0.05% (v/v) Surfactant P20, pH 7.4) was monitored for 10 minutes. Kinetic association (kₐ) and dissociation (kd) rate constants were determined by fitting the real-time sensorgrams to a 1:1 binding model using Scrubber 2.0c curve fitting software. Binding dissociation equilibrium constants (KD) and dissociative half-lives (t ½) were calculated from the kinetic rate constants as: KD [M]=kd/kₐ; and t_{1/2}(min)=(ln 2/(60*kd). Results are summarized in Table 3.
Kd [nM],koff [s⁻¹],kon [M⁻¹ s⁻¹],t½ [min],Binder
0.389,0.000479,1.23e+06,24.1,B1
0.537,0.000583,1.09e+06,19.8,B2
0.297,0.000269,906000,42.9,B3
0.159,0.000153,965000,75.5,B4
0.365,0.000191,524000,60.4,B5

# Biological target: T3, hGITR.mmh
# Experiment: SPR 37C, mAb capture
# Method: as §1
Kd [nM],koff [s⁻¹],kon [M⁻¹ s⁻¹],t½ [min],Binder
22.7,0.00784,345000,1.5,B1
63,0.0167,266000,0.7,B2
31.4,0.0123,392000,0.9,B3
2.79,0.00123,439000,9.4,B4
13.4,0.0025,186000,4.6,B5

# Biological target: T4, mfGITR.mmh
# Experiment: SPR 37C, mAb capture
# Method: as §1
Kd [nM],koff [s⁻¹],kon [M⁻¹ s⁻¹],t½ [min],Binder
20.1,0.00334,166000,3.5,B1
85.9,0.0171,199000,0.7,B2
55.8,0.0107,191000,1.1,B3
122,0.0166,137000,0.7,B4
1400,0.014,10000,0.8,B5
